Measurements from publication PMC11505469.

What was measured:
Human FcRn = assay: SPR
CD3εδ = assay: SPR

ISB 2001 (from UniProt P01857)
Kd (Human FcRn): 0.24 µM
Kd (CD3εδ): 0.041 µM
